From patent US20230220589A1

Experiments:
[1] = target: M90-modified L NTAA target peptide; experiment: affinity comparison between P1 residues (method not specified; BLI / encoding assay)
[2] = target: M2014-modified Y NTAA target peptides (M2014-Y-P2-peptide); experiment: Gini coefficient of P2 tolerance from multiplex encoding heatmap
[3] = target: M2014-modified Y NTAA target peptides (M2014-Y-P2-peptide); experiment: Gini coefficient of P1 selectivity from multiplex encoding heatmap
[4] = target: M12-modified L NTAA target peptides (M12-L-P2-peptide); experiment: multiplex encoding assay on 288 immobilized peptides (FIG. 10); holds for at least 11 P2 residues
[5] = target: M12-modified F NTAA target peptides (M12-F-P2-peptide); experiment: multiplex encoding assay on 288 immobilized peptides (FIG. 9); holds for at least 14 P2 residues
[6] = target: M48-modified L NTAA target peptides (M48-L-P2-peptide); experiment: Gini coefficient of P2 tolerance from multiplex encoding heatmap
[7] = target: M48-modified L NTAA target peptides (M48-L-P2-peptide); experiment: Gini coefficient of P1 selectivity from multiplex encoding heatmap
[8] = target: M90-modified F NTAA target peptide; experiment: affinity comparison between P1 residues (method not specified; BLI / encoding assay)
[9] = target: M44-modified Y NTAA target peptides (M44-Y-P2-peptide); experiment: Gini coefficient of P2 tolerance from multiplex encoding heatmap
[10] = target: M44-modified Y NTAA target peptides (M44-Y-P2-peptide); experiment: Gini coefficient of P1 selectivity from multiplex encoding heatmap

B1: SEQ ID NO 53 (designed binder, not shown: small tags and cut ends; large carriers)
chain: QIPLCANLVPVPITNATLDRITGKWFLIASASRNEEYNKSVQGSQNTAFYFTPNKTEDTIFLRRYQTRQNQCFYNSSYLNVQRENGTVSSYFGGRENVIHLLFLRDTKTLMLGRYLDDEKNWGLEFYADKPETTKEQLGEFYEALDCLRIPRSDVMYTDWKKDKCEPLEKQHEKERKQEEGES
Work on B1 yielded a fold affinity over an otherwise identical peptide with a different P1 [1] of over 2 fold.

B2: SEQ ID NO 48 (designed binder, not shown: small tags and cut ends; large carriers)
chain: QDSTQNLIPAPSLLTVPLQPDFRSDQFRGRWYVVGLAGNAVQKKTEGSFTMLSLIYELQENNSYNVTAIFVRDQDQGCRYVIDTLVPSSRAGQFTPGSMGRFPQVQSYNVQVATTDYNQFAMVFVRVTSENKQYFEITLLGRTKELSPELKERFTRFAKSLGLKDDNIIFSVPTDQCIDNSAWSHPQFEK
With B2 the P2 score [2] was 0.255 and the P1 score [3] was 0.238.

B3: engineered M12-L binder (SEQ ID NO: 49) (designed binder, not shown: small tags and cut ends; large carriers)
chain: QVSVQPNFQQDKFLGRWFVAGIASNSSWSREKIAALSFAKGVVAPATDGGLNYTETVLRKNQCETQTVLLQPAGSLGSYSARSPHQGSTRSFSVVETDYDQYALLYAQGSKGPGEDDRVAGLWSRTQTPRAELKEKFTAFSKAQGFTEDTIVFLPQTDKCMTEQ
Work on B3 yielded an encoding efficiency (fraction of recording tags encoded) [4] of over 0.15.

B4: engineered M12-F binder (SEQ ID NO: 50) (designed binder, not shown: small tags and cut ends; large carriers)
chain: GPVPTPPDNIQVQENFNISRIYGKWYPLAMGSTSPYLKKSMDIMTPSYLVLGEGATEAEISWTETFWRKGVCEEGSGALEKTDTDGKFLYHKSKWNITEERYVVHTNYDEYAIVLVKKFSRHHGPTIEAVLMGRAPQLRETLLQDFRVVAQGVGIPEDSIFTMADRGECVPGEQ
B4 showed an encoding efficiency (fraction of recording tags encoded) [5] of over 0.15.

B5: SEQ ID NO 27 (designed binder, not shown: small tags and cut ends; large carriers)
chain: QVSVQPNFQQDKFLGRWFIAGQASNSSWQREKCAALSRAKVVVAPATDGGLNLTMTLLRKNQCETRTTLLQPAGSLGSYSYRSPHLGSTVSWSVVETDYDQYALMYVQGSKGPGEDQRFAILWSRTQTPRAELKEKFTAFSKAQGFTEDTIVFLPQTDKCMTEQ
B5 showed a P2 score [6] of 0.312 and a P1 score [7] of 0.0571.

B6: SEQ ID NO 51 (designed binder, not shown: small tags and cut ends; large carriers)
chain: QIPLCANLVPVPITNATLDRITGKWFHIASAIRNEEYNKSVQRQQSTHFYITPNKTEDTIFTRVYQTRQNQCFYNSSYLNVQRENGTVSLYSGGREVVGHLLFLRDTKTLMWGTYLDDEKNWGLEFWADKPETTKEQLGEFYEALDCLRIPRSDVMYTDWKKDKCEPLEKQHEKERKQEEGES
In the case of B6, the fold affinity over an otherwise identical peptide with a different P1 [8] is reported as over 2 fold.

B7: SEQ ID NO 45 (designed binder, not shown: small tags and cut ends; large carriers)
chain: TVPDRSEIAGKWYVVALASNTEFLLREKDSLKSAMARISFLGEDELKVSYARPLPNGCLKLEATMKKTSDDGEVYLSRSAKLKVEVLDTDYKSYAVIYATPVKDGRTRHYMALYSRSPEVSPAATAIFRKLAGERNYTDEMVAMLPRQEECTVDEV
In the case of B7, the P2 score [9] is reported as 0.426 and the P1 score [10] is reported as 0.301.
